Experimental data from PMC4335047, “Interaction between the tRNA-Binding and C-Terminal Domains of Yeast Gcn2 Regulates Kinase Activity In Vivo” (PLoS Genetics, 2015).

Assays:
Experiment in all cases: pull-down; purified GST fusions (5 μg) immobilised on glutathione-Sepharose 4B beads; in vitro translated [35S]-HisRS(970–1497), partially purified by ammonium sulfate precipitation; buffer A, 4°C, 2 h; without or with increasing tRNA^Phe or a model mRNA; fluorography
Settings in all cases: one partner purified
[1] = molecular target: T1, GST-KD (Gcn2 residues 568–998) (S. cerevisiae, UniProt P15442 568-998)
T1 construct: Gcn2 of S. cerevisiae, kinase domain (KD), residues 568-998; a pGEX vector with the tac promoter points to E. coli; also called GST-GCN2(568–998); source: purified GST fusion (P tac, pGEX-5x-1); not shown: GST, N-terminal, kept
T1 sequence (P15442 568-998): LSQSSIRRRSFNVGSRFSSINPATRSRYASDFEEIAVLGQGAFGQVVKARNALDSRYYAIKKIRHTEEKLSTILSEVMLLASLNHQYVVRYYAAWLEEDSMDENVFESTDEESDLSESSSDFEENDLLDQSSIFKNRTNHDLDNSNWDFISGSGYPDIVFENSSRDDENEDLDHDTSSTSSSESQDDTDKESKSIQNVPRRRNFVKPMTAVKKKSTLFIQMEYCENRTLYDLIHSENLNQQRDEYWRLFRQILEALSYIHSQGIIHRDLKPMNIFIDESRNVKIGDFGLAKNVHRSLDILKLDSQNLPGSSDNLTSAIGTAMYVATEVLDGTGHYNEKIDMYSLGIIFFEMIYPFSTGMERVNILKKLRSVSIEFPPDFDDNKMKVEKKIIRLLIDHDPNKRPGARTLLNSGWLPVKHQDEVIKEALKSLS

[2] = molecular target: T2, GST-CTD (Gcn2 residues 1498–1659) (S. cerevisiae, UniProt P15442 1498-1659)
T2 construct: Gcn2 of S. cerevisiae, C-terminal domain (CTD), residues 1498-1659; a pGEX vector with the tac promoter points to E. coli; also called GST-GCN2(1498–1659); source: purified GST fusion (P tac, pGEX-5x-1); not shown: GST, N-terminal, kept
T2 sequence (looked up): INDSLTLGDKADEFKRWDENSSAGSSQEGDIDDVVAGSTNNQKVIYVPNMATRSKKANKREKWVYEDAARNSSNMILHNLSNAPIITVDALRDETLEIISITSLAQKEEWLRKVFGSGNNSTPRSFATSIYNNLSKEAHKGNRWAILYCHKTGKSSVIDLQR

[3] = molecular target: T3, GST-HisRS (Gcn2 residues 970–1497), wild type (S. cerevisiae, UniProt P15442 970-1497)
T3 construct: Gcn2 of S. cerevisiae, HisRS-related domain, residues 970-1497; also called WT GST-HisRS; GST-HisRS (970–1497); not shown: GST, N-terminal, kept
T3 sequence (looked up): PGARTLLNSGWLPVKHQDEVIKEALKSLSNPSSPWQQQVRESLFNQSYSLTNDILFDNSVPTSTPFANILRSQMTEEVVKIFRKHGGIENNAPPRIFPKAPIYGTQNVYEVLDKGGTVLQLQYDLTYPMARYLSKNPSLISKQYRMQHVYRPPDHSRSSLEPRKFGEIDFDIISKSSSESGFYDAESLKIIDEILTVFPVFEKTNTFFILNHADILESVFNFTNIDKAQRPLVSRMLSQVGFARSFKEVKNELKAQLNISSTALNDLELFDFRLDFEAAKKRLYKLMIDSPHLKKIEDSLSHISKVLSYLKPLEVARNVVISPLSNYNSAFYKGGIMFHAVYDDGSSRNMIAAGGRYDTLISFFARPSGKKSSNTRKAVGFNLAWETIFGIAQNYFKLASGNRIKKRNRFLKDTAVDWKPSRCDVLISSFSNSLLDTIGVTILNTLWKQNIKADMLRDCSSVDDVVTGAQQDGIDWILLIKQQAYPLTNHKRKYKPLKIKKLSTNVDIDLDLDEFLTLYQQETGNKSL

fold reduction of the pull-down on addition of tRNA^Phe [1]: ~1.8 fold
fold reduction of the pull-down on addition of tRNA^Phe [2]: ~5.4 fold
fold reduction of the pull-down on addition of tRNA^Phe [3]: ~2.1 fold
B1: [35S]-HisRS(970–1497) segment of Gcn2 (domain or fragment, S. cerevisiae, UniProt P15442 970-1497, looked up)
chain: PGARTLLNSGWLPVKHQDEVIKEALKSLSNPSSPWQQQVRESLFNQSYSLTNDILFDNSVPTSTPFANILRSQMTEEVVKIFRKHGGIENNAPPRIFPKAPIYGTQNVYEVLDKGGTVLQLQYDLTYPMARYLSKNPSLISKQYRMQHVYRPPDHSRSSLEPRKFGEIDFDIISKSSSESGFYDAESLKIIDEILTVFPVFEKTNTFFILNHADILESVFNFTNIDKAQRPLVSRMLSQVGFARSFKEVKNELKAQLNISSTALNDLELFDFRLDFEAAKKRLYKLMIDSPHLKKIEDSLSHISKVLSYLKPLEVARNVVISPLSNYNSAFYKGGIMFHAVYDDGSSRNMIAAGGRYDTLISFFARPSGKKSSNTRKAVGFNLAWETIFGIAQNYFKLASGNRIKKRNRFLKDTAVDWKPSRCDVLISSFSNSLLDTIGVTILNTLWKQNIKADMLRDCSSVDDVVTGAQQDGIDWILLIKQQAYPLTNHKRKYKPLKIKKLSTNVDIDLDLDEFLTLYQQETGNKSL
modifications: [35S]-methionine labeled
notes: Gcn2 of S. cerevisiae, HisRS-related domain, residues 970-1497; P T7-GCN2 (970–1497) in pGEM-3Z; also called [^35S]-methionine labeled HisRS fragment; [^35S]-HisRS domain fragments; source: in vitro translated (TNT T7 Coupled Reticulocyte Lysate System), partially purified by ammonium sulfate precipitation
